Measured values reported in doi:10.1101/2024.02.17.580827 (bioRxiv, 2024).

T1: FolK (purified protein) (E. coli, UniProt P26281 1-159)
T1 sequence: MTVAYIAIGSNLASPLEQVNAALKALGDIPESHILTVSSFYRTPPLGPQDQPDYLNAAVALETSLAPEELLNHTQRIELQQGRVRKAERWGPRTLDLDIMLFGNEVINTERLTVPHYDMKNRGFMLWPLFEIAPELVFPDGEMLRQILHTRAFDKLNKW


biological target: T1, FolK (purified protein); assay: Raman spectroscopy

Kd [µM]	Binder
22	WT DHFR (purified protein) (enzyme) MISLIAALAVDRVIGMENAMPWNLPADLAWFKRNTLNKPVIMGRHTWESIGRPLPGRKNIILSSQPGTDDRVTWVKSVDEAIAACGDVPEIMVIGGGRVYEQFLPKAQKLYLTHIDAEVEGDTHFPDYEPDDWESVFSEFHDADAQNSHSYCFEILERR
10	D144N DHFR (purified protein) (enzyme) MISLIAALAVDRVIGMENAMPWNLPADLAWFKRNTLNKPVIMGRHTWESIGRPLPGRKNIILSSQPGTDDRVTWVKSVDEAIAACGDVPEIMVIGGGRVYEQFLPKAQKLYLTHIDAEVEGDTHFPDYEPDDWESVFSEFHDANAQNSHSYCFEILERR
5.1	N23V DHFR (purified protein) (enzyme) MISLIAALAVDRVIGMENAMPWVLPADLAWFKRNTLNKPVIMGRHTWESIGRPLPGRKNIILSSQPGTDDRVTWVKSVDEAIAACGDVPEIMVIGGGRVYEQFLPKAQKLYLTHIDAEVEGDTHFPDYEPDDWESVFSEFHDADAQNSHSYCFEILERR
8.1	D132H DHFR (purified protein) (enzyme) MISLIAALAVDRVIGMENAMPWNLPADLAWFKRNTLNKPVIMGRHTWESIGRPLPGRKNIILSSQPGTDDRVTWVKSVDEAIAACGDVPEIMVIGGGRVYEQFLPKAQKLYLTHIDAEVEGDTHFPDYEPDHWESVFSEFHDADAQNSHSYCFEILERR
